For experiment [1], the target named is NepR2 (Sphingopyxis granuli TFA). Briefly: SPR.
The target of experiment [2] is NepR1 (Sphingopyxis granuli TFA). Briefly: SPR. (In SPR one partner is held on a chip, and binding of the other changes the refractive index at the surface.)

As a reminder, the Kd is a measure of binding affinity in units of concentration.

For the substance EcfG1 (natural protein), the Kd in experiment [1] came out at 38.8 nM.
As to EcfG2 (natural protein), the results for the Kd in experiment [2] and in experiment [1] were 14.2 nM and 23.5 nM, respectively.

The values above are taken from paper PMC9303464.
